Literature values in PMC5982148.

Tests used:
Assay in all cases: SPR
[1] = target: glyceraldehyde-3-phosphate dehydrogenase (Homo sapiens) (UniProt P04406)
CYP2C9 (Homo sapiens) = CYP2C9 (Homo sapiens) (UniProt P11712)
CYP1B1 (Homo sapiens) = CYP1B1 (Homo sapiens) (UniProt Q16678)
[2] = target: NADPH-adrenodoxin reductase (Homo sapiens) (UniProt P22570)
SMAD4 (Homo sapiens) = SMAD4 (Homo sapiens) (UniProt Q13485)
[3] = target: cytochrome b5 (Homo sapiens) (UniProt P00167)

Chain of UniProt Q16678 (Q16678 whole entry): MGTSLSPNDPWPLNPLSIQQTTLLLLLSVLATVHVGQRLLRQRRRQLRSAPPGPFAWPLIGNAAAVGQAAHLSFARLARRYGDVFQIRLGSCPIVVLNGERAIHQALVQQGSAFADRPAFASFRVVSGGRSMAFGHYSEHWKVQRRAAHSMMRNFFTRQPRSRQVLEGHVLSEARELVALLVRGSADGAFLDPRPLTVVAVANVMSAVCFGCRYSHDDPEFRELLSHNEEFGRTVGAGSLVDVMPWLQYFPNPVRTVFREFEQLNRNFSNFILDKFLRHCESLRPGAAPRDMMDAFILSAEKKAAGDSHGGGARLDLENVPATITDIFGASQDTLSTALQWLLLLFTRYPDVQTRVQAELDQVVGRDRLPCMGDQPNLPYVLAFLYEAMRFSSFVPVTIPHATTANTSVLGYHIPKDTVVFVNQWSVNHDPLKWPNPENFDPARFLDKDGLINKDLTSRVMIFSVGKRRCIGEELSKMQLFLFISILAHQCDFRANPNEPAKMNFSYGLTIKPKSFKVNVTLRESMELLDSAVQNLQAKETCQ
Chain of UniProt Q13485 (Q13485 whole entry): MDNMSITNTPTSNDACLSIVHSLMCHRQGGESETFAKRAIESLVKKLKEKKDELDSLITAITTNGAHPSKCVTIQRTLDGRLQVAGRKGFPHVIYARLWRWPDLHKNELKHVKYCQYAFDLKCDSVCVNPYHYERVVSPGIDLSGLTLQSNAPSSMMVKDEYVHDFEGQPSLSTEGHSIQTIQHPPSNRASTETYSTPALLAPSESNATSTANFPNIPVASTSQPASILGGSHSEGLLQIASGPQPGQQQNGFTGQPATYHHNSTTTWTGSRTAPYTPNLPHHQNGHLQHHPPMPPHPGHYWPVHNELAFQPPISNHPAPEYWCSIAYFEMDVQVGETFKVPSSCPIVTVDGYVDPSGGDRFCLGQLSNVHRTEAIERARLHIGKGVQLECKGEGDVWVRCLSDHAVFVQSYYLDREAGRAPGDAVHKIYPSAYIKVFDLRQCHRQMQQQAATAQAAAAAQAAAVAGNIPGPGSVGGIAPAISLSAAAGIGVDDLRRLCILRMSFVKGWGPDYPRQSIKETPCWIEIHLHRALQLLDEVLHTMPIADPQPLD
Chain of UniProt P22570 (P22570 33-491): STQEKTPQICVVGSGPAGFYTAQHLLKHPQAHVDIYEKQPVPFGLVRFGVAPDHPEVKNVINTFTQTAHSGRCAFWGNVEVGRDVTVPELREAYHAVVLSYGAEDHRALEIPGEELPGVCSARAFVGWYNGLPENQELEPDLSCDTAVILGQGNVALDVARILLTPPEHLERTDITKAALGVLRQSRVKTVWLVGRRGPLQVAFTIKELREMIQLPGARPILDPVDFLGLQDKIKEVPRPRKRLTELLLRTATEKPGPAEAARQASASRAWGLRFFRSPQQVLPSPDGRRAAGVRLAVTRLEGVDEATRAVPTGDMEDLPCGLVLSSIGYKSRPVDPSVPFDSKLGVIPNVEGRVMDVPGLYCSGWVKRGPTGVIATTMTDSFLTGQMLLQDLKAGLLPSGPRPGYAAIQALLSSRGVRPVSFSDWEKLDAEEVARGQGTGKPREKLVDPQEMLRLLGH
Chain of UniProt P11712 (P11712 whole entry): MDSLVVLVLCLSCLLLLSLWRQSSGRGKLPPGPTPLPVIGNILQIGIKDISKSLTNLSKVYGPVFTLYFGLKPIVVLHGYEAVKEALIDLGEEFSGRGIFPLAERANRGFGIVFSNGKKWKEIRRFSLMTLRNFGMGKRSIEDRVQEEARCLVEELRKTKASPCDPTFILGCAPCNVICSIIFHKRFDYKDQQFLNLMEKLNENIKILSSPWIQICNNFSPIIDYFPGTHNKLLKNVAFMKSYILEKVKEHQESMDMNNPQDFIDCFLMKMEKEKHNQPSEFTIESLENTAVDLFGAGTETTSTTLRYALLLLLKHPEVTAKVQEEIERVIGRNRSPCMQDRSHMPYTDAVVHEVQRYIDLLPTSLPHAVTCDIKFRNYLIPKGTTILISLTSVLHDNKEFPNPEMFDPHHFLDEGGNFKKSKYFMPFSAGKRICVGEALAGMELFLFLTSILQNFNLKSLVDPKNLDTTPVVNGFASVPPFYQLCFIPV
Chain of UniProt P04406 (P04406 2-335): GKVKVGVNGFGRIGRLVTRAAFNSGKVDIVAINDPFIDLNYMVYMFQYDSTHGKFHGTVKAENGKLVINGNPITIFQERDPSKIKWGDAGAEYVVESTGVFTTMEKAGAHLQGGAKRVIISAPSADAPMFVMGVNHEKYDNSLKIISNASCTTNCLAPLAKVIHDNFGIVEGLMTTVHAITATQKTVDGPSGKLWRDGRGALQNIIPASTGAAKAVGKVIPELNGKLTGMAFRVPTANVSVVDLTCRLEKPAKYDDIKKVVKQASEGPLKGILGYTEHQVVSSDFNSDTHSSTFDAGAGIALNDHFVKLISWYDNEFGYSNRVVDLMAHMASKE

Substance | Kd [1] | Kd (CYP2C9 (Homo sapiens)) | Kd (CYP1B1 (Homo sapiens)) | Kd [2] | Kd (SMAD4 (Homo sapiens)) | Kd [3]
cytochrome b5 (from UniProt P00167) | 100 nM | 1100 nM | 70 nM |  |  | 
ferrochelatase (from UniProt P22830) |  |  |  | 13000 nM | 1600 nM | 1500 nM
